Data from the RNAGym collection of RNA variant scans (doi:10.1073/pnas.2313332121).

B1: TPR t1 (parent)
chain: GACCAAUCUGCCCUCAGAGCUCGAGAACAUCUUCGGAUGCAGAGGAGGCAGGCUUCGGUGGCGCGAUAGCGCCAACGUCCUCAACCUCCAAUGCAUCCCACCACAUGAUGAUGCCUGAAGAGCCUUGGUUUUUUG

Variants of: B1
Experiment: polymerase ribozyme fitness, log enrichment relative to wild type (log ratio); higher = more active; in vitro selection for triplet polymerase activity
How it was run: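 A heterodimeric triplet polymerase ribozyme had each of its subunits mutagenized by PCR into a library, which was transcribed. One round of in vitro selection, done in triplicate, annealed each library with a biotinylated primer, its partner subunit and triplets, then incubated it frozen at −7 °C before gel excision of extended constructs, streptavidin-bead capture and RT-PCR. Fitness is the logarithm of genotype enrichment relative to wild-type enrichment, based on Illumina sequencing of inputs and outputs and inverse-variance-weighted replicate averages. A base-2 logarithm is used, and genotypes were kept only with ≥10 input reads and ≥1 read per output.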

Variant	polymerase ribozyme fitness (log ratio)
A6U C28G C72U C102U A103C	-7.04
U7G A46U G93U	-2.2
A6U C56A C94A U106A C124A	0.262
A6G G113A	-0.703
A6U G48A A91C C114A	-2.36
A6U C73G	-1.46
A6G A41G U87A G110A U125G	-3.92
A6C U9A C15G G45A C104A C124G	-3.65
A6U C8U G48U	-0.267
U7C C72G A84C	-0.576
A6U G39A A74C A91U	-2.33
A6G G48U G52C C73G	-3.58
A6U A26U G39A C49G G61A C88U C124G	-3.73
A6U C56G G110U	-1.25
U7C U9G A26G	-1.4
A6U U7G C8G C56A G63A	-2.06
A6U G17U U112A G120A	-3.9
A6U C115U	-1.06
A6G C8G G10U C76A G117C C124A	-2.05
A6U G58A U81A G110A A118C	-2.44
U7A C15U C56A G69U U106G G120C	-0.793
U7G A46U	-1.38
A6C C70U U129A	-2.82
A6C U7G C22G G58U A95G C104A G120C	-3.33

Variant	polymerase ribozyme fitness (log ratio)
U7A C89U	-0.565
A6C G71A G93C C99U C123A U130A	-7.12
A6U C98U U112G	-3.5
A6U C13G C56U G77C	-1.6
U7C G17A G63U A121C	-1.33
U7A G35C A41C C64U C79U G113U	-7.12
U7C C34U C49A A50C	-5.35
A6G C97U U112A	1.48
U7C C11G C62A U96G	-1.18
A6U A18G G93A	-5.43
U7C U14G G48U C70G	-5.7
A6G G71C A118U	-0.254
U7A C53U C73U C86U A90G G122A	-2.05
A6C C70U C73G	-2.81
U7C A74G G110A A118U	-0.453
U7C A16G C70A C94U C104U U112A	-1.32
U7G A16C G42A	-4.17
A6G G69A C115A G120A	-1.22
U7C G107A U109A	-4.11
A6G G63U C73G C102A G110U C115G	-6.75
A6U C115U A119U U130G	-1.27
A6U G71U C82G	-0.9
A6G C8A U55A	0.109
A6G A50C C70G	-3

Variant	polymerase ribozyme fitness (log ratio)
U7C C72A A83G	-0.327
U7C G39A C124U	0.776
A6U A18U G93C C102U	-6.29
A6G C49G G51U C73G U133A	-2.49
U7C U59A A83G U96C	-1.25
A6U G10U C13G C40U A41C G63U U78C C79A A121G	-4.13
U7A A37U U78A	0.116
U7C A16U C79U C85A	-4.35
A6U A16U C40G C56A	-3.22
U7C A41U C123G U131A	0.484
U7C C13A C72G U92C	-2.47
U7A G63A C89U	-1.1
A6U C72A	0.375
A6U G17C U130A	-4.89
A6U C102A C123G	-0.023
A6G C11G G57U	0.178
U7A A43C U129G	-4.22
A6U G44A C73U C86G	-3.18
A6U C11A C62G G120A	-2.04
U7C C12A	-0.242
U7C C12G	0.687
U7A C34A C97U	-1.97
A6C G48A G71U C82A	-1
A6G C12A G117A	-2.34

Variant	polymerase ribozyme fitness (log ratio)
A6C G44A G61U	-0.646
U7C G17C C115A	0.0409
U7A C64A	-4.63
A6U G44A A50U C94G	-4.1
U7C C72U	0.588
A6C C53G G69U	0.253
U7A C12U C62A G113C	-3.19
U7C C56A G135U	-1.85
A6U C22U	-3.04
U7A G10C A90U C101A	-4.34
U7C A66C G77C C88A	-2.34
A6U G17U C40U C76G	-3.15
U7C G61A U81G U116G C124A	-2.26
A6U C15U A26G C86U A100U G120A C123A U125G	-5.49
A6U C13A C22G A75U	-4.17
A6U A29U G61A C115G G117U	-4.58
A6G G10U C56U C94U G135U	-1.99
A6C C114U	-2.3
A6G A18G U129A U133A G135U	-5.44
A6U C70A A91G	-2.94
A6U C56G U129A	-2.48
U7A U14A C86U A90U	-3.61
U7C C12U C22U G63A	-4.58
A6U C11A C12U A37G G61A	-1.24

Variant	polymerase ribozyme fitness (log ratio)
A6C U78A	0.00944
U7A G93C	-0.696
A6G	0.335
A6U	0.173
U7A C53U C70U	-0.899
U7A G36U G61U C124G	0.266
U7C C70U C101G	-2.79
A6U G51U C70U C80U G93U	-5.12
A6U C11G	0.392
A6G G48A G69A U129G	-5.25
U7G A27G G48C C86G	-0.81
A6U U9G G63A C104U C115U G117U	-3.69
A6U G44A	-1.02
A6U G44U	-1.52
A6C G52A U81C A121C C123A	-0.955
U7A A50U C64U	-0.349
A6G G71A G120C	0.128
A6C U9G	-0.665
A6C G35A	-4.12
U7A C13G G63U G93A C102G C115U A121G	-7.01
U7G A29U G42A C53U C62U	-3.19
U7C C11U C73U G93U	-1.53
U7C G45U G60A C82G C85G G117A	-3.81
U7A C70U C115A	0.524

Variant	polymerase ribozyme fitness (log ratio)
U7C G113A	0.595
A6G G47U G71A	-2.24
A6G G10A C11U G61A A100U G128A	-2.69
A6U C8G G44U C49A C72A G77U G120C U130G	-1.84
A6U G120U	-0.0286
A6U G120C	1.12
U7C A50U C82U	-0.98
A6U A26G C79U	-2.88
U7A C20G U78C	-4.76
A6G A66U C73G A75U C80U G120U U129G	-4.99
A6U U92G	-2.92
U7C A16C G52C G110A U130A	-5.74
A6C U78A C94G U106G	-3.64
U7C A37U C73A	-0.516
A6G A24G G36U C49A	-3.79
A6G C13U C102U G122A	-2.62
A6U U14A C86A U96A	-6.24
A6C C82U	-0.547
A6U G23U	-4.65
U7A A66G U87C C94U G110U	-2.5
U7C G44A	-0.534
A6G G61C C79A U112G C114U	-6.62
A6C G52U G63A	-0.684
U7A U78C G93U G113C	-3.01

Variant	polymerase ribozyme fitness (log ratio)
U7C A24U G61U	-7.38
A6G C11G C12U C40G G44U G93A	-2.75
A6U G25A C56A C73A C79G C94U G113U C124A	-8.13
U7C C56A G71U A90C	-3.95
A6U C8G C73G C88A U92G C98A G113U	-6.38
A6C C53G	-0.863
U7A C8G A43C C53A G69U	-0.446
A6G C13U C22U G44C	-5.6
A6U A90U C114A U116G	-3.49
A6U G71A A83G	-1.85
A6U G128A	-2.02
U7A C73G U116G	-2.7
A6U G58C G63U C64A A119U	-6.07
U7A G63C U81G	-4.09
A6C U38A A43U	-3.16
A6C G77A	-0.571
A6G C11G G17C G36C C97U	-5.22
A6G C49U G60C G135U	-2.21
U7C C11A G45C G58A	-0.0271
A6U C12U C72U A83C G127U	-0.0511
A6U G42C C73G	-2.29
A6U C72U C76G C98U	-1.11
U7C C11G A100C G120A	1.21
